This is an account of results in patent US20200231654A1 (published 2020).

For assay [1], the target named is active hMMP-9(cat)_His6 (UniProt P14780 107-449). The assay can be described thus: enzyme inhibition; substrate gelatin.
The target in assay [2] is active mMMP-9(cat)_FLAG_Avi (UniProt P41245 108-450). The assay can be described thus: enzyme inhibition; substrate peptide.
Assay [3] concerns the target T1, MMP-7 (catalytic domain) (human), (recombinant) (human, UniProt P09237 95-267).
T1 chain: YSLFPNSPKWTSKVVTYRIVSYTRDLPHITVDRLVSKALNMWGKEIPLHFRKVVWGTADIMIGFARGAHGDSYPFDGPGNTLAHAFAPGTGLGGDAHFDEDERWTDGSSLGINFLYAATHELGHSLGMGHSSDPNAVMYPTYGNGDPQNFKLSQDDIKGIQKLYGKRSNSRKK
Put plainly: enzyme inhibition.

For assay [4], the target named is Recombinant Human MMP-16/MT3-MMP Protein, CF (human, UniProt P51512 32-564). The assay can be described thus: enzyme inhibition.
Assay [5] addresses Trypsin from Human Pancreas (human, UniProt P07477 24-247). Put plainly: substrate peptide degradation inhibition.
The target in assay [6] is T2, Chymase human recombinant expressed in Pichia pastoris (human, UniProt P23946 22-247).
T2 chain: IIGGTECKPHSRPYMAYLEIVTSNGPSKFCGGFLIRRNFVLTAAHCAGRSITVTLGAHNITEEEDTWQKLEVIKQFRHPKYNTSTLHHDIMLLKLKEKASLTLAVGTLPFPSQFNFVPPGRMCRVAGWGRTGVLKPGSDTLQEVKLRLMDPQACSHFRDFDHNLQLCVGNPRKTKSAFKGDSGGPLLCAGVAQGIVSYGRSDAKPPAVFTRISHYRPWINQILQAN
Put plainly: substrate peptide degradation inhibition.

For assay [7], the target named is T3, Plasmin from human plasma (human, UniProt P00747 97-810).
T3 chain: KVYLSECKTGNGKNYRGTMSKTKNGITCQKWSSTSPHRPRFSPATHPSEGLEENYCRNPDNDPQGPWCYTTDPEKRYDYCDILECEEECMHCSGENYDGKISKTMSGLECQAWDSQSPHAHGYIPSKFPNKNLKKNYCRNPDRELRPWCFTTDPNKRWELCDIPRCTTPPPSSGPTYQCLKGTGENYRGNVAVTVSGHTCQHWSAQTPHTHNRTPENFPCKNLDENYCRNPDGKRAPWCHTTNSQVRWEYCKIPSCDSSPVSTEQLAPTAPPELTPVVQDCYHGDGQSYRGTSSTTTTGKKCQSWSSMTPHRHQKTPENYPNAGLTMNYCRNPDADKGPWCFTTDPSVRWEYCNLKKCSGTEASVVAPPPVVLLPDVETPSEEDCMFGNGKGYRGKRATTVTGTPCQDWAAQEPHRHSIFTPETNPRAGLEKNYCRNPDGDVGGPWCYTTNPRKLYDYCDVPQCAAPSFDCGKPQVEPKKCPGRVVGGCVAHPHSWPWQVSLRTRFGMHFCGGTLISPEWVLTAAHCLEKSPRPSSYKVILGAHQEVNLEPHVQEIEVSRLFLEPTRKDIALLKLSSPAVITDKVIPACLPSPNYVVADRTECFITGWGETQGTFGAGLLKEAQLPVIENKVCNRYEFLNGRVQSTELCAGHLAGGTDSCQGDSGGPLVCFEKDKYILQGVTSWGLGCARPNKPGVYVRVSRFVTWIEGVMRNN
Put plainly: substrate peptide degradation inhibition.

The target in assay [8] is Thrombin from human plasma (human, UniProt P00734 328-622). Put plainly: substrate peptide degradation inhibition.
For assay [9], the target named is urokinase from human urine (human, UniProt P00749 21-431). Put plainly: substrate peptide degradation inhibition.
Assay [10] has as its target T4, Neutrophil elastase (human) (human, UniProt P08246 30-247).
T4 chain: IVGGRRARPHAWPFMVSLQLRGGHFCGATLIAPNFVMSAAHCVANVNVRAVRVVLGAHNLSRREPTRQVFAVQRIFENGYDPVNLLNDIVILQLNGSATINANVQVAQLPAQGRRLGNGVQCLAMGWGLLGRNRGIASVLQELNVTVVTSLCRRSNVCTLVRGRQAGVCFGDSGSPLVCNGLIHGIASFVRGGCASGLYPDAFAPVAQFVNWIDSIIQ
The assay can be described thus: substrate peptide degradation inhibition.

In assay [11] the target is T5, Recombinant Human Matriptase/ST14 Catalytic Domain (human, UniProt Q9Y5Y6 596-855).
T5 chain: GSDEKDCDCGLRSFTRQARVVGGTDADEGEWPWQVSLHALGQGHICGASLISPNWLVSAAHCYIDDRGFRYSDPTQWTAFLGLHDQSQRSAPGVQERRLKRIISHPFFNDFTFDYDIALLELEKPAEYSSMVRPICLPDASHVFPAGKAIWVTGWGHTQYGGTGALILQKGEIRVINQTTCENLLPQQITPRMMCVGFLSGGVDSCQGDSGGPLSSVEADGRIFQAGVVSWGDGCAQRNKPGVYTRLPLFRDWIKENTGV
Put plainly: substrate peptide degradation inhibition.

The target of assay [12] is recombinant human plasma kallikrein/KLKB1 Protein (human, UniProt P03952 20-638). Put plainly: substrate peptide degradation inhibition.
Assay [13] addresses Tryptase from human lung (human, UniProt Q15661 31-275). Put plainly: substrate peptide degradation inhibition.
The target in assay [14] is tissue plasminogen activator human (human, UniProt P00750 36-562). The assay can be described thus: substrate peptide degradation inhibition.
Assay [15] addresses α-Chymotrypsin from human pancreas (human, UniProt P17538 19-263). Put plainly: substrate peptide degradation inhibition.
Assay [16] has as its target Protein C from human plasma (human, UniProt P04070 43-461). Put plainly: substrate peptide degradation inhibition.

A value given as a limit tells only on which side of the number the result lay.

Sequence of Recombinant Human MMP-16/MT3-MMP Protein, CF (P51512 32-564): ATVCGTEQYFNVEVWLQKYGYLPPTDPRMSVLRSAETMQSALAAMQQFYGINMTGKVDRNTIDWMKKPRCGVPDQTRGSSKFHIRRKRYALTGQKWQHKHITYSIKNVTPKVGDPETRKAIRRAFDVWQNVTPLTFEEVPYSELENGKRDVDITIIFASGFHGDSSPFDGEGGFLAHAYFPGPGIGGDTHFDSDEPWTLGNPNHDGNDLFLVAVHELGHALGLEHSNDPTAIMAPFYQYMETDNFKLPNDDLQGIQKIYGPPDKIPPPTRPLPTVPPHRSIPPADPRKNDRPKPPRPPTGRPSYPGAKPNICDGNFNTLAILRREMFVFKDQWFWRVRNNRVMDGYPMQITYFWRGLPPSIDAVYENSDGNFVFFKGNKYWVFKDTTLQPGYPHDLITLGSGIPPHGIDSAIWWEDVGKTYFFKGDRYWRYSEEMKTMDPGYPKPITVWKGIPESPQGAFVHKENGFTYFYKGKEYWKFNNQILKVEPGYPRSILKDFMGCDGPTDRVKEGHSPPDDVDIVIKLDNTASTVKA
Sequence of Tryptase from human lung (Q15661 31-275): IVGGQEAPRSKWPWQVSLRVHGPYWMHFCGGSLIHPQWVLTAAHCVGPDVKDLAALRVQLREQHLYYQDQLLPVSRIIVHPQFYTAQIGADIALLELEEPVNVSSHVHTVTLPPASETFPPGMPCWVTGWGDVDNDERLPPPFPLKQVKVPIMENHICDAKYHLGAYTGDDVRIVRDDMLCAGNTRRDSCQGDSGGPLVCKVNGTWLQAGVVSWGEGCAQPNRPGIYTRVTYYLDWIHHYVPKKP
Sequence of active mMMP-9(cat)_FLAG_Avi (P41245 other isoform, or with tags, fused parts or gaps): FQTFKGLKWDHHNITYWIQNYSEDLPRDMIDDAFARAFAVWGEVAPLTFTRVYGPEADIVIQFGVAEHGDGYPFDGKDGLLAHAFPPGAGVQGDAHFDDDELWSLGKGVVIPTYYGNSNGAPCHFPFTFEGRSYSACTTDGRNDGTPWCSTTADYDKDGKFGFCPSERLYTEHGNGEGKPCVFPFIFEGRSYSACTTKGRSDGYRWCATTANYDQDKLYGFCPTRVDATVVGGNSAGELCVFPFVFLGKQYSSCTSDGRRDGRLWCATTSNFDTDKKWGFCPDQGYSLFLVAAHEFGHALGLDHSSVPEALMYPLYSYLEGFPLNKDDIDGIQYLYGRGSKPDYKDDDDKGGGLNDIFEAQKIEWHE
Sequence of Protein C from human plasma (P04070 43-461): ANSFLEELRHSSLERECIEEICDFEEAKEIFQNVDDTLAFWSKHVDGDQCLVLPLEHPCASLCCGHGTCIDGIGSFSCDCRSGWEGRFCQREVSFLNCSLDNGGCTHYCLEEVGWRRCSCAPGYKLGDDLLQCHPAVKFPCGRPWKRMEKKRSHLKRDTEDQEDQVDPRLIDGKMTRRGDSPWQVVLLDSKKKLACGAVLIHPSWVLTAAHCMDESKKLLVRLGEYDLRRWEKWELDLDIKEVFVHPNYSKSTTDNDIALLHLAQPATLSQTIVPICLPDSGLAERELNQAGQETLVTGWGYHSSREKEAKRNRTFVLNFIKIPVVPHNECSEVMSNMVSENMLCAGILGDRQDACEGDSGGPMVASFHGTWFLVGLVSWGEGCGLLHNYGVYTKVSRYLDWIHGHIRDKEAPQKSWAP
Sequence of active hMMP-9(cat)_His6 (P14780 107-449): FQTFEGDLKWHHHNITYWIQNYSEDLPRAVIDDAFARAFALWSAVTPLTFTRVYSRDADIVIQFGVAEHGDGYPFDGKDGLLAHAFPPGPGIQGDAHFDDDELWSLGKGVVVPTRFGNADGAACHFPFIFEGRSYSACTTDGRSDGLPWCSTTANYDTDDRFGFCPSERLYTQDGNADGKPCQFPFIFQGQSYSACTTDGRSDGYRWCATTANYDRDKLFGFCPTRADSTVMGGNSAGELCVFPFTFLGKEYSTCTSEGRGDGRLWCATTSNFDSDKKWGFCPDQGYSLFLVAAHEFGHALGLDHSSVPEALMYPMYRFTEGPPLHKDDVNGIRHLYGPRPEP
Sequence of α-Chymotrypsin from human pancreas (P17538 19-263): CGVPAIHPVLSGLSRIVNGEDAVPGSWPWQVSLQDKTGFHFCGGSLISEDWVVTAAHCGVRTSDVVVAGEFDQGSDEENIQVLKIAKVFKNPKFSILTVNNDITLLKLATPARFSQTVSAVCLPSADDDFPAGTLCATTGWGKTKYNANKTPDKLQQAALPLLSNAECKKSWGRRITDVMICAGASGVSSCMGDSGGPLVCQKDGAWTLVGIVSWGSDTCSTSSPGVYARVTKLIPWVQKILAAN
Sequence of recombinant human plasma kallikrein/KLKB1 Protein (P03952 20-638): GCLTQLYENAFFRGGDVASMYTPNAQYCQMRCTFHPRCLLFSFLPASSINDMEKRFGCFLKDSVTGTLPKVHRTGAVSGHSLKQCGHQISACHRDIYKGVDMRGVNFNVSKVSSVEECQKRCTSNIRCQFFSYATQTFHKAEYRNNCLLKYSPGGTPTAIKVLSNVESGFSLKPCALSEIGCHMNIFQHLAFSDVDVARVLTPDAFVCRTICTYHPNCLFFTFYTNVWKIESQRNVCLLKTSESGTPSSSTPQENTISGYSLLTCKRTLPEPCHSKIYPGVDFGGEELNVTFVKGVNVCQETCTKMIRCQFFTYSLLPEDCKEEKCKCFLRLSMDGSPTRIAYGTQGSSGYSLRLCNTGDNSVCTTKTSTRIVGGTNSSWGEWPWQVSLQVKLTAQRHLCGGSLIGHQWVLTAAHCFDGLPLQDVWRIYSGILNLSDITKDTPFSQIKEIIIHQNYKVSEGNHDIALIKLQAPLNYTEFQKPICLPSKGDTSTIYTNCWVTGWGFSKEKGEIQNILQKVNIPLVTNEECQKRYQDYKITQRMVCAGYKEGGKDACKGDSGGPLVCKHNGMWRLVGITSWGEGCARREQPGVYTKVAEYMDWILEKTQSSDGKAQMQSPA
Sequence of tissue plasminogen activator human (P00750 36-562): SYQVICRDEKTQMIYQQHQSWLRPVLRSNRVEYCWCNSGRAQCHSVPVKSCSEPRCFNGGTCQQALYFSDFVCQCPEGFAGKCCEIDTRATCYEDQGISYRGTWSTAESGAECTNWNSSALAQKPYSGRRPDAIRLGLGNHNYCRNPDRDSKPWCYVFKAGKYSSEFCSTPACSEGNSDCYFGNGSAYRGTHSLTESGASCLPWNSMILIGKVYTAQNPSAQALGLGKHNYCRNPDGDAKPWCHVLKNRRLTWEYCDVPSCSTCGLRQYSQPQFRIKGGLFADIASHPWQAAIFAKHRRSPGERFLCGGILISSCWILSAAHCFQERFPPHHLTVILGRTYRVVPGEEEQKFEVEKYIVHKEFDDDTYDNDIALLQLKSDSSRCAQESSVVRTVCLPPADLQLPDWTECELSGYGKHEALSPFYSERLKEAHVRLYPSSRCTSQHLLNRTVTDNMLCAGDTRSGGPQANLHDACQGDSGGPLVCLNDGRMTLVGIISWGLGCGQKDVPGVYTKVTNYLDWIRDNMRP

B1: active MMP-9-binding peptide M91014 (designed binder)
chain: GSGMKETAAAKFERQHMDSPDLGTDDDDKAMADIGSANSDPQFGLFSKYRTPNCVMYKYAQCSHKYKPVCGSDMSTYANECTLCMKIREGGHNIKIIRNGPCGASAAA
B1: the IC50 was 3 nM in assay [1]; 9.2 nM in assay [2]; above 1000 nM in assay [3]; above 1000 nM in [4]; above 1000 nM in [5]; above 1000 nM in assay [6]. Besides, the IC50 in [7], in assay [8], in assay [9], in [10], in assay [11] and in assay [12] was above 1000 nM in each case. In addition, the half-maximal inhibitory concentration (IC50) in assay [13], in assay [14], in assay [15] and in assay [16] was above 1000 nM in each case.

B2: active MMP-9-binding peptide M91005 (designed binder)
chain: GSGMKETAAAKFERQHMDSPDLGTDDDDKAMADIGSANSDPQFGLFSKYRTPNCRKRGGPSCQMSYNPVCGSDMSTYANECTLCMKIREGGHNIKIIRNGPCGASAAA
Turning to B2, the half-maximal inhibitory concentration (IC50) in assay [1] is 8.2 nM; in assay [2], 8.4 nM; in assay [3], above 1000 nM; in assay [4] it was above 1000 nM; in assay [5], above 1000 nM; in assay [6] it was above 1000 nM. Besides, the IC50 in [7], in [8], in assay [9], in assay [10], in assay [11] and in assay [12] was above 1000 nM throughout. In addition, the concentration for half-maximal inhibition (IC50) in [13], in [14], in [15] and in assay [16] was above 1000 nM each time.
